Assay results from patent publication US20160047001A1, “Sept4/ARTS AS A TUMOR SUPPRESSOR IN THE DIAGNOSIS, PROGNOSIS AND TREATMENT OF HEPATIC DISORDERS” (CARMEL-HAIFA UNIVERSITY ECONOMIC CORPORATION LTD., priority 2013, published 2016).
Entries after “also recorded” stand apart in the source; their conditions may differ.

Legend:
ARTS mRNA = assay: RT-PCR of ARTS mRNA after exposure to chromatin-modifying drugs; assay type: cell-based, human; conditions: for ARTS mRNA level: HCC cell-lines, individual treatment, AZA 10 μM, TSA 1 μM; for ARTS levels: PH5CH non-malignant hepatocyte cell-line
Description: Quantitative reverse transcription polymerase chain reactions (qRT-PCR) incorporating SYBR Green (Applied Biosystems) were carried-out using a Realplex qPCR Mastercycler (Eppendorf; Hauppauge, N.Y.). For semi-quantitative PCR, total RNA was extracted from cell-lines using Trizol reagent (Invitrogen, Carlsbad, Calif.) and in turn, was used to synthesize cDNA using random primers, reagents, and protocol provided in the Superscript 1st strand synthesis kit (Invitrogen). Normalized amounts of cDNA served as template in standard PCR using AmpliTaq DNA polymerase (Applied Biosystems). Immunoblotting was performed as previously described in (7). Cell extracts were prepared from tumor and adjacent non-tumor control tissues that were excised from the liver of sacrificed mice, homogenized by Polytron PT 2100 (Brinkman) in Triton X-100 lysis buffer and clarified by centrifugation. Extracts were normalized for protein concentration by Bradford assay (BioRad) prior to immunoblotting procedures. Signal detection was performed with enhanced chemiluminescence kit (Amersham). The following primary antibodies were used: anti-A6 (gift from Dr. V. Factor NCI/NIH), anti-Flag and anti-β-actin (Sigma); anti-XIAP (Becton Dickinson); anti-cIAP-1 (R&D Systems); anti-β-catenin and anti-Survivin (Cell Signaling), anti-cytokeratin-8 (Fitzgerald Indust. Intl., Concord, Mass.). 5-Aza-2′deoxycytidine (AZA), Trichostatin A (TSA), and cycloheximide (CHX) were purchased from Sigma-Alrich. Tumor-necrosis factor-α, the anti-Fas antibody (Jo-2), and the in vitro methylated genomic Hela DNA were obtained from Peprotech, Pharminogen, and New England Biolabs, respectively. To examine the possibility of epigenetic regulation, chromatin-modifying drugs were tested for their ability to influence ARTS expression. Cells were exposed to DNA-methyltransferase and HDAC inhibitors 5′ aza-cytosine (AZA) and trichostatin A (TSA), respectively.

ARTS = assay: Western blot of ARTS knockdown by hairpins in NIH3T3 fibroblasts; assay type: cell-based
Description: (§1) miR30-designed shRNAs were subcloned into the pLMP (MSCV-based) retroviral vector as previously described (30). Briefly, individual shRNAs were synthesized as 97 base-pair oligos (Sigma Genosys), PCR-amplified, ligated into pLMP following EcoRI/XhoI-digestion.
Immunoblotting was performed as previously described in (7). Cell extracts were prepared from tumor and adjacent non-tumor control tissues that were excised from the liver of sacrificed mice, homogenized by Polytron PT 2100 (Brinkman) in Triton X-100 lysis buffer and clarified by centrifugation. Extracts were normalized for protein concentration by Bradford assay (BioRad) prior to immunoblotting procedures. Signal detection was performed with enhanced chemiluminescence kit (Amersham). The following primary antibodies were used: anti-A6 (gift from Dr. V. Factor NCI/NIH), anti-Flag and anti-β-actin (Sigma); anti-XIAP (Becton Dickinson); anti-cIAP-1 (R&D Systems); anti-β-catenin and anti-Survivin (Cell Signaling), anti-cytokeratin-8 (Fitzgerald Indust. Intl., Concord, Mass.). 5-Aza-2′deoxycytidine (AZA), Trichostatin A (TSA), and cycloheximide (CHX) were purchased from Sigma-Alrich. Tumor-necrosis factor-α, the anti-Fas antibody (Jo-2), and the in vitro methylated genomic Hela DNA were obtained from Peprotech, Pharminogen, and New England Biolabs, respectively.

Sept4/H5-Flag = assay: Western blot (anti-Flag) of Sept4/H5-Flag knockdown in NIH3T3 fibroblasts; assay type: cell-based; conditions: NIH3T3 fibroblasts stably expressing Sept4/H5-Flag; retroviral shRNA; anti-Flag immunoblot
Description: FIG. 5I. A pan-Sept4- and Sept4/H5-specific short-hairpins promote efficient knowndown. […] NIH3T3 fibroblasts stably expressing Flag-epitope tagged Sept4/H5 (Sept4/H5-Flag) were transduced with retroviruses harboring the indicated shRNAs, a non-silencing control, or left un-infected Immunoblotting was performed with anti-Flag antibody to detect Sept4/H5-Flag expression (red arrow).
as §1
Immunoblotting was performed as previously described in (7). Cell extracts were prepared from tumor and adjacent non-tumor control tissues that were excised from the liver of sacrificed mice, homogenized by Polytron PT 2100 (Brinkman) in Triton X-100 lysis buffer and clarified by centrifugation. Extracts were normalized for protein concentration by Bradford assay (BioRad) prior to immunoblotting procedures. Signal detection was performed with enhanced chemiluminescence kit (Amersham). […]

PHM-1 hepatoblasts = assay: Growth of PHM-1 hepatoblasts after sub-cutaneous transplantation into host mice; assay type: in vivo; conditions: PHM-1 cells carrying the hairpin, sub-cutaneous injection into host mice
Excerpt: FIG. 5D. Growth of PHM-1 hepatoblasts following their sub-cutaneous transplantation into host mice. Values are the mean±standard deviation of four independent experiments. P-values: *P=0.04, **P=0.03, and ***P=0.01.
Details on isolation, culture, retrovirus-mediated gene transfer, and sub-cutaneous transplantation of hepatoblasts can be found in (30). Cell viability was monitored by propidium iodide (PI) nuclear staining and flow cytometric analysis.

| Molecule | ARTS mRNA level (ARTS mRNA) | ARTS levels (ARTS mRNA) | ARTS levels (knockdown) (ARTS) | further results |
| --- | --- | --- | --- | --- |
| CC(/C=C/C(=O)NO)=C\[C@@H](C)C(=O)c1ccc(N(C)C)cc1 [TSA, Trichostatin A] | upregulation of ARTS mRNA; also recorded: induced ARTS mRNA to levels comparable to those observed in normal hepatocytes | little appreciable effect |  |  |
| Nc1ncn([C@H]2C[C@H](O)[C@@H](CO)O2)c(=O)n1 [AZA, 5-Aza-2′deoxycytidine] | upregulation of ARTS mRNA; also recorded: induced ARTS mRNA to levels comparable to those observed in normal hepatocytes | little appreciable effect |  |  |
| sh-ARTS-3: miR30-designed shRNA specifically targeting ARTS, in pLMP retroviral vector (nucleic acid) TGCTGTTGACAGTGAGCGACGGGTGGTCACTGATTCCTGTTAGTGAAGCCACAGATGTAACAGGAATCAGTGACCACCCGCTGCCTACTGCCTCGGA |  |  | capable of reducing ARTS levels |  |
| sh-ARTS-2: miR30-designed shRNA specifically targeting ARTS, in pLMP retroviral vector (nucleic acid) TGCTGTTGACAGTGAGCGAAACAGGCCGAGTAGCACCACATAGTGAAGCCACAGATGTATGTGGTGCTACTCGGCCTGTTCTGCCTACTGCCTCGGA |  |  | capable of reducing ARTS levels |  |
| sh-ARTS-1: miR30-designed shRNA specifically targeting ARTS, in pLMP retroviral vector (nucleic acid) TGCTGTTGACAGTGAGCGCAAGGGAACAGGCCGAGTAGCATAGTGAAGCCACAGATGTATGCTACTCGGCCTGTTCCCTTATGCCTACTGCCTCGGA |  |  | capable of reducing ARTS levels |  |
| sh-panSept4: miR30-designed shRNA targeting all Sept4-isoforms, including ARTS (nucleic acid) TGCTGTTGACAGTGAGCGCAAGCACGCAGTGGATATAGAATAGTGAAGCCACAGATGTATTCTATATCCACTGCGTGCTTATGCCTACTGCCTCGGA |  |  | capable of reducing ARTS levels | Sept4/H5 knockdown (Sept4/H5-Flag): highly effective Sept4/H45 knockdown; tumor growth (PHM-1 hepatoblasts): promoted tumor growth |
